System: human brain endothelial cells (HBEC)
Assay: Confocal microscopy internalization
Assay type: cell-based
Details: 100 nM AF647-CBP-4, 90 min (labelled IGFBP-4: unpublished observation)
Description: HBEC (100000 cell/well in a 24-well format plate) were seeded on human fibronectin- (40 μg/ml) coated cover slips (Bellco Biotechnology) in 400 μl HBEC media and grown until reached 80% confluence. Cells were then washed twice with D-MEM and incubated in D-MEM for 30 min at 37 C. Then, D-MEM was removed and replaced with 250 μl/well of D-MEM containing 100 nM AF647-CBP-4 conjugate for 90 min and then washed with PBS. Cells were counterstained with the membrane dye DiOC5(3) for 15 seconds and then washed with PBS. Imaging of cells was performed using Zeiss LSM 410 (Carl Zeiss, Thornwood, N.Y., USA) inverted laser scanning microscope equipped with an Argon\Krypton ion laser and a Plan-Apochromat 63X, NA 1.4. Confocal images of two fluoroprobes were sequentially obtained using 488 and 647 nm excitation laser lines to detect DiOC5(3) (510-525 nm emission) and Alexa 647 fluorescence (670-810 nm emission).

B1: fluorescently-labeled IGFBP-4: fluorescently-labeled IGFBP-4, unpublished observations (conjugate, UniProt P22692 22-258, looked up)
Insulin-like growth …: DEAIHCPPCSEEKLARCRPPVGCEELVREPGCGCCATCALGLGMPCGVYTPRCGSGLRCYPPRGVEKPLHTLMHGQGVCMELAEIEAIQESLQPSDKDEGDHPNNSFSPCSAHDRRCLQKHFAKIRDRSTSGGKMKVNGAPREDARPVPQGSCQSELHRALERLAASQSRTHEDLYIIPIPNCDRNGNFHPKQCHPALDGQRGKCWCVDRKTGVKLPGGLEPKGELDCHQLADSFRE
modifications: fluorescent label
notes: fluorescently-labeled IGFBP-4, unpublished observations
With B1 as the molecule, how does the “internalization into HBEC” value read?
The value was “internalized into HBEC”.
